The values below come from paper doi:10.1101/2020.08.07.241737 (bioRxiv, 2020).

In the assay the target is T1, COP1-His recombinant protein (Arabidopsis thaliana, UniProt P43254 1-675).
T1 sequence (looked up): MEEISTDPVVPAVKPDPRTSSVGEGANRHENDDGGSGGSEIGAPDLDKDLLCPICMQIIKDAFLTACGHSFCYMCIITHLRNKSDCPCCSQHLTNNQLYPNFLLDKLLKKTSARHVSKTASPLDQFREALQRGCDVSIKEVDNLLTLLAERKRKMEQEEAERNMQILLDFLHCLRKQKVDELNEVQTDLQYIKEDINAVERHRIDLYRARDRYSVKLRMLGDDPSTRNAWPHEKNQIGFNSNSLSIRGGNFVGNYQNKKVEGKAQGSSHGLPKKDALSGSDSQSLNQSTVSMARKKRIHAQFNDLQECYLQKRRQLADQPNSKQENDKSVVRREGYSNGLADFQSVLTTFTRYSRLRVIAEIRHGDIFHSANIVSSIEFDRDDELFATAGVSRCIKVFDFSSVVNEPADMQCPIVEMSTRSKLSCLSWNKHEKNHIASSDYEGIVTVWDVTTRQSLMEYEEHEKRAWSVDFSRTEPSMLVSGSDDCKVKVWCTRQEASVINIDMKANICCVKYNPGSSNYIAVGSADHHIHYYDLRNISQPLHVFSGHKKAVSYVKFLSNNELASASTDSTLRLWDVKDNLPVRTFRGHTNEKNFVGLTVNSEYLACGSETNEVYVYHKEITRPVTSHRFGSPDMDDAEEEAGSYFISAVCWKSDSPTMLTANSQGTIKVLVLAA
The assay is described as follows: pull-down.

B1: GST-HDA15 recombinant protein (enzyme, Arabidopsis thaliana, UniProt Q8GXJ1 1-552, looked up)
chain: MVVETIERSCEGSKRRHVNGGDIAVPCSGEECSNGDINVAPGVSAKRARVSREMTFEDIYGADALLNDDDDEDDDCDWEPVQAPMEFVKWCCVNCTMSNPGDMVHCCICGEHKESGILRHGYLASPFFKDTGLIEVEEKYGGSSSATSSTAVGFDERMLLHSEFEVKAQPHPERPDRLRAIAASLATAGVFPGRCLPINAREITKQELQMVHTSEHVDAVDTTSQLLYSYFTSDTYANEYSARAARLAAGLCADLATDIFTGRVKNGFALVRPPGHHAGVRHAMGFCLHNNAAVAALVAQAAGAKKVLIVDWDVHHGNGTQEIFEQNKSVLYISLHRHEGGNFYPGTGAADEVGSNGGEGYCVNVPWSCGGVGDKDYIFAFQHVVLPIASAFSPDFVIISAGFDAARGDPLGCCDVTPAGYSRMTQMLGDLCGGKMLVILEGGYNLRSISASATAVIKVLLGENPENELPIATTPSVAGLQTVLDVLNIQLEFWPSLAISYSKLLSELEARLIENKKNQMKRKVVRVPTWWKWGRKKLLYNFLSARMISRSK
With B1, the binding result is recorded as “binds”.
